Measurements taken from paper doi:10.1101/2023.01.10.523476 (bioRxiv, 2023).
Like-named read-outs stand apart in the source and are kept apart here.

Legend:
cryo-EM structure [1] = target: the molecule itself; test: cryo-EM structure
cryo-EM structure [2] = target: the molecule itself; test: cryo-EM structure; remark: listed apart in the source

Protein	stoichiometry N (cryo-EM structure [1])	stoichiometry N (cryo-EM structure [2])
GspDβ secretin (ETEC H10407 strain) with hexahistidine tag (natural protein) EEATFTANFKDTDLKSFIETVGANLNKTIIMGPGVQGKVSIRTMTPLNERQYYQLFLNLLEAQGYAVVPMENDVLKVVKSSAAKVEPLPLVGEGSDNYAGDEMVTKVVPVRNVSVRELAPILRQMIDSAGSGNVVNYDPSNVIMLTGRASVVERLTEVIQRVDHAGNRTEEVIPLDNASASEIARVLESLTKNSGENQPATLKSQIVADERTNSVIVSGDPATRDKMRRLIRRLDSEMERSGNSQVFYLKYSKAEDLVDVLKQVSGTLTAAKEEAEGTVGSGREIVSIAASKHSNALIVTAPQDIMQSLQSVIEQLDIRRAQVHVEALIVEVAEGSNINFGVQWASKDAGLMQFANGTQIPIGTLGAAISQAKPQKGSTVISENGATTINPDTNGDLSTLAQLLSGFSGTAVGVVKGDWMALVQAVKNDSSSNVLSTPSITTLDNQEAFFMVGQDVPVLTGSTVGSNNSNPFNTVERKKVGIMLKVTPQINEGNAVQMVIEQEVSKVEGQTSLDVVFGERKLKTTVLANDGELIVLGGLMDDQAGESVAKVPLLGDIPLIGNLFKSTADKKEKRNLMVFIRPTILRDGMAADGVSQRKYNYMRAEQIYRDEQGLSLMPHTAQPVLPAQNQALPPEVRAFLNAGRTR	15	
GspDα secretin (E. coli K12 strain) (natural protein) ENEQYGANFNNADIRQFVEIVGQHLGKTILIDPSVQGTISVRSNDTFSQQEYYQFFLSILDLYGYSVITLDNGFLKVVRSANVKTSPGMIADSSRPGVGDELVTRIVPLENVPARDLAPLLRQMMDAGSVGNVVHYEPSNVLILTGRASTINKLIEVIKRVDVIGTEKQQIIHLEYASAEDLAEILNQLISESHGKSQMPALLSAKIVADKRTNSLIISGPEKARQRITSLLKSLDVEESEEGNTRVYYLKYAKATNLVEVLTGVSEKLKDEKGNARKPSSSGAMDNVAITADEQTNSLVITADQSVQEKLATVIARLDIRRAQVLVEAIIVEVQDGNGLNLGVQWANKNVGAQQFTNTGLPIFNAAQGVADYKKNGGITSANPAWDMFSAYNGMAAGFFNGDWGVLLTALASNNKNDILATPSIVTLDNKLASFNVGQDVPVLSGSQTTSGDNVFNTVERKTVGTKLKVTPQVNEGDAVLLEIEQEVSSVDSSSNSTLGPTFNTRTIQNAVLVKTGETVVLGGLLDDFSKEQVSKVPLLGDIPLVGQLFRYTSTERAKRNLMVFIRPTIIRDDDVYRSLSKEKYTRYRQEQQQRIDGKSKALVGSEDLPVLDENTFNSHAPAPSSR		15
